T1: CD95 (APO-1/Fas) death receptor of human Raji B cells, stimulated with agonistic anti-APO-1 antibody (human, UniProt P25445 26-335)
T1 construct: whole, on cells; also called CD95 death receptor; CD95 receptor complex
T1 sequence: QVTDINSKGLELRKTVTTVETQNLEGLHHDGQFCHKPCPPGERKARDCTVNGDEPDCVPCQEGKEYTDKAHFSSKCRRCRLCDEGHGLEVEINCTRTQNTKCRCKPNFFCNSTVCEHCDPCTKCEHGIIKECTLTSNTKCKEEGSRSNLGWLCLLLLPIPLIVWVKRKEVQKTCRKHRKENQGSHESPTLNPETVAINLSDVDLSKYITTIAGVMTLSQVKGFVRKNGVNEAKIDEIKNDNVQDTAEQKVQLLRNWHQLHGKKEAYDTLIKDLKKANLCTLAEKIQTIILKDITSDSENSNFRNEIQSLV

T2: Flag-marked 159L protein (viral FLIP, ORF 159L of molluscum contagiosum virus, MCV) (molluscum contagiosum virus (MCV), UniProt Q98325 1-241)
T2 construct: also called Flag-159L; 159L-FLIP (MCV)
T2 sequence: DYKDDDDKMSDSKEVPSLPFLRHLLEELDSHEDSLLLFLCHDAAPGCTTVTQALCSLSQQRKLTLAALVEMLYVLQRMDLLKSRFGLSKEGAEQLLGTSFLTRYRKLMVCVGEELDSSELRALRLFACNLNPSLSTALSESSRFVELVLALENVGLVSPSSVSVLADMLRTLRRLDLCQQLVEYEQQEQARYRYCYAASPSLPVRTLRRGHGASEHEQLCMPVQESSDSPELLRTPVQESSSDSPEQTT

B1: Flag-marked E8 protein (viral FLIP, ORF E8 of equine herpes virus 2, EHV-2) (other, equine herpes virus 2 (EHV-2))
chain: DYKDDDDKMSHYSMIDTYFSLDEDETETYLYLCRDLLKNKGEFQCTRDAFKFLSDYACLSAANQMELLFRVGRLDLIRRIFGQTWTPDSCPRYYMPICSPFRCLMALVNDFLSDKEVEEMYFLCAPRLESHLEPGSKKSFLRLASLLEDLELLGGDKLTFLRHLLTTIGRADLVKNLQV
notes: mature; also called Flag-E8; E8 FLIP
B2: myc-marked cytoplasmic protein segment of the CD95 (Fas) death receptor (receptor, murine, UniProt P25446 187-327, looked up, not shown: small tags and cut ends)
chain: RKYRKRKCWKRRQDDPESRTSSRETIPMNASNLSLSKYIPRIAEDMTIQEAKKFARENNIKEGKIDEIMHDSIQDTAEQKVQLLLCWYQSHGKSDAYQDLIKGLKKAECRRTLDKFQDMVQKDLGKSTPDTGNENEGQCLE
notes: range 166-306; also called myc-CD95; my-CD95
B3: adaptor protein FADD (human) (other, UniProt Q13158 1-208, looked up)
chain: MDPFLVLLHSVSSSLSSSELTELKFLCLGRVGKRKLERVQSGLDLFSMLLEQNDLEPGHTELLRELLASLRRHDLLRRVDDFEAGAAAGAAPGEEDLCAAFNVICDNVGKDWRRLARQLKVSDTKIDSIEDRYPRNLTERVRESLRIWKNTEKENATVAHLVGALRSCQMNLVADLVQEVQQARDLQNRSGAMSPMSWNSDASTSEAS
notes: also called CAP1

Assays:
[1] = target: T1, CD95 (APO-1/Fas) death receptor of …; assay: anti-CD95 (APO-1) immune precipitation from Raji clones, gels
[2] = target: B3; assay: anti-Flag immune precipitation, anti-FADD Western blot, 293T cells
[3] = target: T3, Flag-marked FLIPP (caspase-homologous C-terminal protein segment of human FLIPL) (human, UniProt O15519 233-480); assay: anti-Flag immune precipitation, anti-myc Western blot, co-transfected 293T cells (with FADD)
T3 construct: also called caspase-homologous protein segment of FLIPL

[4] = target: T3, Flag-marked FLIPP (caspase-homologous …); assay: anti-Flag immune precipitation, anti-FADD Western blot, co-transfected 293T cells
[5] = target: T2, Flag-marked 159L protein (viral FLIP, …); assay: co-transfection in 293T cells, anti-Flag immune precipitation, anti-FADD Western blot

T3 sequence (O15519 other isoform, or with tags, fused parts or gaps limits assumed): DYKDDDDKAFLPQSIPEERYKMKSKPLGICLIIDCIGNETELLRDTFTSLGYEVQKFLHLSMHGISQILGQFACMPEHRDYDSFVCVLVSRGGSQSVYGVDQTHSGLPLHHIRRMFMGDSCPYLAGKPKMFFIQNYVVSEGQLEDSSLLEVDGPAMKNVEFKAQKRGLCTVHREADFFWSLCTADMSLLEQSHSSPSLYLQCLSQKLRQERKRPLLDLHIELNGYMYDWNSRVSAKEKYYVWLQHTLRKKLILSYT

Binder: B1
- binding result [1]: binds
- binding result [2]: binds

Binder: B2
- binding result [3]: no binding

Binder: B3
- binding result [4]: no binding
- binding result [5]: binds
